According to patent US20250333531A1:

Biological target: human CD37 (human) (UniProt P11049)
Test: flow cytometry on Ramos cells (HEK293 supernatants), MFI normalised to chHH1-DOTA

Sequence of human CD37 (human) (P11049 whole entry): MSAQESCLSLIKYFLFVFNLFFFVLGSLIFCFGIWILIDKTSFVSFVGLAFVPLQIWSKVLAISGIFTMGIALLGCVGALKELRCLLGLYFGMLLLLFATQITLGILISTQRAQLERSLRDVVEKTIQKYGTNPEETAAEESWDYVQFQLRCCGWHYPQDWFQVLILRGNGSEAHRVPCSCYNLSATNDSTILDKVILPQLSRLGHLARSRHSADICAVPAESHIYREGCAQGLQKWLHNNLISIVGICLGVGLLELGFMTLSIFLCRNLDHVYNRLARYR

B1: HC1 + LC1 (antibody, human IgG1, V domains shown)
VH: QVQLVQSGAEVKKPGASVKVSCKASGYSFTDYNMYWVRQAPGQRLEWMGYIDPYNGDTTYNQKFKGRVTITRDTSASTAYMELSSLRSEDTAVYYCARSPYGHYAMDYWGQGTLVTVSS
VL: DIQMTQSPSSLSASVGDRVTITCKASQDVSTAVDWYQQKPGKAPKLLIYWASTRHTGVPSRFSGSGSGTDFTLTISSLQPEDFATYYCRQHYSTPFTFGQGTKLEIK
  Normalized average binding (%): 40%
